According to patent US20240360201A1 (BIOCYTOGEN PHARMACEUTICALS BEIJING, published 2024):
Values belong to the binder of their own block, whether it stands above or below them.

Tests used:
FcγRI-Sino = target: T1, FcγRI-Sino (human, UniProt P12314 16-288, limits assumed); assay: SPR (Biacore T200, protein A sensor chip), binding to FcγRI-Sino
T1 construct: bought; also called CD64 Protein, Human, Recombinant (His Tag)
Source text: (§1) The Fc receptors included FcγRIIB (FcγRIIB-Acro), FcγRIIA (FcγRIIA-H167-Acro), FcγRIIIA (FcγRIIIA-V176-Acro), FcγRIIIB (FcγRIIIB-NA1-Acro), FcγRI (FcγRI-Sino), and FcRn (FcRn-Acro).
(§2) The Fc receptors included FcγRI (FcγRI-Sino), FcγRIIA (FcγRIIA-H167-Acro and FcγRIIA-R167), FcγRIIB, FcγRIIIA (FcγRIIIA-F176 and FcγRIIIA-V176-Acro), and FcγRIIIB (FcγRIIIB-NA1-Acro).

human CD40 (hCD40-his) = human CD40 (hCD40-his) (human, UniProt P25942 21-193); assay: SPR Biacore T200; binder captured on protein A chip, target as analyte
human CD40 (hCD40-his), sequence (P25942 21-193 limits assumed): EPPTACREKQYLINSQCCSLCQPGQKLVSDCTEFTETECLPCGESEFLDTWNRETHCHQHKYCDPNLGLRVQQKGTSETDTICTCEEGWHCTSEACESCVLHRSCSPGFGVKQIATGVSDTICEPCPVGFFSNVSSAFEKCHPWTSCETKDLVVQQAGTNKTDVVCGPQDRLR
Description: Binding affinity to human CD40 of the obtained fusion proteins PDL1-C40-6A7-FV3A (IgG1), PDL1-C40-6A7-FV3A-IgG4, PDL1-C40-6A7-FV3C (IgG1), PDL1-C40-6A7-FV3A1 (IgG1), PDL1-C40-6A7-FV3A2 (IgG1), and PDL1-C40-6A7-FV3A3 (IgG1) were determined by surface plasmon resonance (SPR) using Biacore™ T200 biosensor equipped with pre-immobilized protein A sensor chips. The original anti-CD40 monoclonal antibody C40-6A7 IgG2 (6A7, VH SEQ ID NO: 91, VL SEQ ID NO: 92), which the scFV was derived from, was used as a control.

FcγRIIIA-V176-Acro = target: T2, FcγRIIIA-V176-Acro (human, UniProt P08637 17-208); assay: SPR (Biacore T200, protein A sensor chip), binding to FcγRIIIA-V176-Acro
T2 construct: bought; Val at 176; also called Human Fc gamma RIIIA/CD16a (V176) Protein, His Tag
T2 sequence (P08637 17-208 F176V limits assumed): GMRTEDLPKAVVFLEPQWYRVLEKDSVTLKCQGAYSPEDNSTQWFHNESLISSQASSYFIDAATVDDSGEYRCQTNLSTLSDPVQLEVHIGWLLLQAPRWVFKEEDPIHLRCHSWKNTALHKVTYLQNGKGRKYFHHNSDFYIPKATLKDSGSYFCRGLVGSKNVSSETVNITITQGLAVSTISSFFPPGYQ
Source text: as §1, §2

FcγRIIA-H167-Acro = target: T3, FcγRIIA-H167-Acro (human, UniProt P12318 36-218, limits assumed); assay: SPR (Biacore T200, protein A sensor chip), binding to FcγRIIA-H167-Acro
T3 construct: bought; His at 167; also called Human Fc gamma RIIA/CD32a (H167) Protein, His Tag
T3 sequence (looked up): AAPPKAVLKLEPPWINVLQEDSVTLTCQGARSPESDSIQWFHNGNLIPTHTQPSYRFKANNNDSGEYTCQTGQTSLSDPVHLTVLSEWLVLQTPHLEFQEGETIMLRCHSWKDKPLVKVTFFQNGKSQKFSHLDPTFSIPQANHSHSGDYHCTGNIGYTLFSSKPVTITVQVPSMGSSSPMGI
Source text: as §1, §2

FcγRIIB = target: T4, FcγRIIB (human); assay: SPR (Biacore T200, protein A sensor chip), binding to FcγRIIB
T4 construct: recombinant protein used as SPR analyte
T4 sequence (P31994 43-217): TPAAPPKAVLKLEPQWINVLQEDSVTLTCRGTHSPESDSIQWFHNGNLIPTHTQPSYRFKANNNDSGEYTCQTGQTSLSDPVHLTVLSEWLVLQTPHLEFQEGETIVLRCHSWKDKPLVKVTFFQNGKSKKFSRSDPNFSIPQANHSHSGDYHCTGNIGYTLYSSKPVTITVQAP
Source text: as §1, §2

FcγRIIA-R167 = target: T5, FcγRIIA-R167 (human); assay: SPR (Biacore T200, protein A sensor chip), binding to FcγRIIA-R167
T5 construct: recombinant, His tag; ACRO product; different from FcγRIIA-R167-Sino; also called Human Fc gamma RIIA/CD32a (R167) Protein, His Tag
Source text: as §1, §2

FcγRIIIA-F176 = target: T6, FcγRIIIA-F176 (human, UniProt P08637); assay: SPR (Biacore T200, protein A sensor chip), binding to FcγRIIIA-F176
T6 construct: recombinant, His tag; ACRO product; different from FcγRIIIA-F176-Sino; also called Human Fc gamma RIIIA/CD16a (F176) Protein, His Tag
T6 sequence (P08637 17-208 limits assumed, form in doubt): as the sequence (P08637 17-208 F176V limits assumed) above, with V160F counted along it
Source text: as §1, §2

[1] = target: T7, 6×Histidine-tagged human PD-L1 protein (hPDL1-His) (human, UniProt Q9NZQ7 19-238); assay: SPR Biacore T200; binder captured on protein A chip, target as analyte
T7 construct: also called hPL1-His; His-tagged human PD-L1
T7 sequence (Q9NZQ7 19-238 limits assumed): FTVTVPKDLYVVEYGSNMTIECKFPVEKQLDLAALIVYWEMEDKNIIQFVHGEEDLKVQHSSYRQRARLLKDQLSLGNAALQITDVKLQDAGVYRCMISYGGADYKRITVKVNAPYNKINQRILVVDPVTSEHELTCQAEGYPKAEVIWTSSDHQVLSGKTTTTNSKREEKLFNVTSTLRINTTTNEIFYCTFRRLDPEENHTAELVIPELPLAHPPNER
Description: Binding affinities of the fusion proteins against human CTLA4 (hCTLA4-His) or human PD-L1 (hPDL1) were measured by surface plasmon resonance (SPR) using Biacore™ T200 biosensor equipped with pre-immobilized protein A sensor chips. A CTLA4 antibody CT4-4G12-IgG1 (CT4) was used as a control. ATOR1015-CD86 (CD86) and KN035-IgG1 (with D265A mutation in heavy chain constant domain) were also used as controls.

FcγRIIIB-NA1-Acro = target: T8, FcγRIIIB-NA1-Acro (human, UniProt O75015 17-200, limits assumed); assay: SPR (Biacore T200, protein A sensor chip), binding to FcγRIIIB-NA1-Acro
T8 construct: bought; also called Human Fc gamma RIIIB/CD16b (NA1) Protein, His Tag
T8 sequence (O75015 other isoform, or with tags, fused parts or gaps limits assumed): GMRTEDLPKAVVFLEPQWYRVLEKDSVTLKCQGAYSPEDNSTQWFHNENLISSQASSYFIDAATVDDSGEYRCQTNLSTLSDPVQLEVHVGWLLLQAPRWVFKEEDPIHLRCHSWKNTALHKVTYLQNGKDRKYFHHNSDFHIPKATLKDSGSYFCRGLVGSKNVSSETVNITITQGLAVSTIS
Source text: as §1, §2

T1 sequence (P12314 16-288 limits assumed): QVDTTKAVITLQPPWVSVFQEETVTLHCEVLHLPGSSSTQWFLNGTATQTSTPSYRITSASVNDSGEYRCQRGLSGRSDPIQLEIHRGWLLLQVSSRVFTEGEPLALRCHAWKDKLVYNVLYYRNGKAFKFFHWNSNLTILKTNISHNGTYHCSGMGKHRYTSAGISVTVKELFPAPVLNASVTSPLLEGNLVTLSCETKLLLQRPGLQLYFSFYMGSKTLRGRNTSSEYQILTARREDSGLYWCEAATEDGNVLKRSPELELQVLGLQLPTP

Kd (FcγRI-Sino): 1.22 nM
Kd (human CD40 (hCD40-his)): 0.852 nM
koff (human CD40 (hCD40-his)): 0.000432 s⁻¹
kon (human CD40 (hCD40-his)): 507000 M⁻¹ s⁻¹
Kd (FcγRIIIA-V176-Acro): 75.3 nM
Kd (FcγRIIA-H167-Acro): 1130 nM
Kd (FcγRIIB): 766 nM
Kd (FcγRIIA-R167): 706 nM
B1: PDL1-C40-6A7-FV3A-IgG4 (bispecific antibody)
heavy: EVQLLESGGGLVQPGGSLRLSCAASGFTFSSYIMMWVRQAPGKGLEWVSSIYPSGGITFYADTVKGRFTISRDNSKNTLYLQMNSLRAEDTAVYYCARIKLGTVTTVDYWGQGTLVTVSSASTKGPSVFPLAPCSRSTSESTAALGCLVKDYFPEPVTVSWNSGALTSGVHTFPAVLQSSGLYSLSSVVTVPSSSLGTKTYTCNVDHKPSNTKVDKRVESKYGPPCPPCPAPEFLGGPSVFLFPPKPKDTLMISRTPEVTCVVVDVSQEDPEVQFNWYVDGVEVHNAKTKPREEQFNSTYRVVSVLTVLHQDWLNGKEYKCKVSNKGLPSSIEKTISKAKGQPREPQVYTLPPSQEEGGGGSGGGGSDVVMTQSPLSLPVTLGQPASISCRSSQSLLHSNGNTYLHWYQQRPGQSPNHLIYQVSNRFSGVPDRFSGSGSGTDFTLKISRVEAEDVGVYFCSQTTHVPWTFGCGTKVEIKGGGGSGGGGSGGGGSGGGGSQVQLVQSGAEVKKPGASVKLSCKASGYTFISYYIYWVKQAPGQCLEWIGGINPRNGGTNFNEKFKSRATLTVDTSISTAYMELSRLRSEDTAVYYCTRHGNGVYWGQGTTLTVSSGGGGSGGGGSVSLTCLVKGFYPSDIAVEWESNGQPENNYKTTPPVLDSDGSFFLYSRLTVDKSRWQEGNVFSCSVMHEALHNHYTQKSLSLSLGK
light: QSALTQPASVSGSPGQSITISCTGTSSDVGGYNYVSWYQQHPGKAPKLMIYDVSNRPSGVSNRFSGSKSGNTASLTISGLQAEDEADYYCSSYTSSSTRVFGTGTKVTVLGQPKANPTVTLFPPSSEELQANKATLVCLISDFYPGAVTVAWKADGSPVKAGVETTKPSKQSNNKYAASSYLSLTPEQWKSHRSYSCQVTHEGSTVEKTVAPTECS
notes: IgG4 subtype of PDL1-C40-6A7-FV3A; also called G5

Kd (FcγRI-Sino): 2.94 nM
Kd (FcγRIIIA-F176): 84.6 nM
Kd [1]: 2.41 nM
koff [1]: 0.00103 s⁻¹
kon [1]: 429000 M⁻¹ s⁻¹
Kd (FcγRIIIA-V176-Acro): 130 nM
Kd (FcγRIIIB-NA1-Acro): 1180 nM
Kd (FcγRIIA-H167-Acro): 633 nM
Kd (FcγRIIB): 2350 nM
Kd (FcγRIIA-R167): 326 nM
B2: PD1-PL1-3F2-FV3A-IgG1 (bispecific antibody)
heavy: EVQLVESGGGLVQPGGSLRLSCAASGFTFSSYSMSWVRQAPGKRLEWVAHISSGGSSTYYPDTVKGRFTISRDNSKNTLYLQMNSLRAEDTAMYYCTRQFYYGSSFWYFDVWGAGTTVTVSSASTKGPSVFPLAPSSKSTSGGTAALGCLVKDYFPEPVTVSWNSGALTSGVHTFPAVLQSSGLYSLSSVVTVPSSSLGTQTYICNVNHKPSNTKVDKKVEPKSCDKTHTCPPCPAPELLGGPSVFLFPPKPKDTLMISRTPEVTCVVVDVSHEDPEVKFNWYVDGVEVHNAKTKPREEQYNSTYRVVSVLTVLHQDWLNGKEYKCKVSNKALPAPIEKTISKAKGQPREPQVYTLPPSREEGGGGSGGGGSQVQLQESGPGLVKPSETLSLTCTVSGYSITSGYNWHWIRQFPGNCLEWMGYIHHSSITNYNPSLKSRITISRDTSKNQFSLKLSSVTAADTATYYCAREGYDYDWFAYWGQGTLVTVSSASTGGGGSGGGGSGGGGSGGGGSDIVLTQSPDFQSVTPKEKVTLSCRASQSISNNLHWYQQKPDESPKLLIKYASQSISGIPSRFSGSGSGTDFTLTINSVEAEDFAMYFCQQSKSWPFTFGCGTRLEIKGGGGSGGGGSVSLTCLVKGFYPSDIAVEWESNGQPENNYKTTPPVLDSDGSFFLYSKLTVDKSRWQQGNVFSCSVMHEALHNHYTQKSLSLSPGK
light: DNVLTQSPATLSVSPGERATLSCKASQSVDFDGDSYMNWYQQKPGQPPRLLIYAASNLESGIPARFSGSGSGTDFTLTISSVEPEDFATYYCQQSNEDPPTFGGGTKVEIKRTVAAPSVFIFPPSDEQLKSGTASVVCLLNNFYPREAKVQWKVDNALQSGNSQESVTEQDSKDSTYSLSSTLTLSKADYEKHKVYACEVTHQGLSSPVTKSFNRGEC
notes: IgG1; also called G4
